Assay results taken from US20030165527A1 (published 2003).

Molecular target: T1, collagen type I from calf skin (Boehringer) (calf, UniProt P02453 162-1217; P02465 80-1117)
T1 construct: Bought preparation coated on microtiter wells
Assay: not described; control for the collagen-Fn inhibition ELISA

T1 sequence (P02453 162-1217 limits assumed, chain 1 of 2): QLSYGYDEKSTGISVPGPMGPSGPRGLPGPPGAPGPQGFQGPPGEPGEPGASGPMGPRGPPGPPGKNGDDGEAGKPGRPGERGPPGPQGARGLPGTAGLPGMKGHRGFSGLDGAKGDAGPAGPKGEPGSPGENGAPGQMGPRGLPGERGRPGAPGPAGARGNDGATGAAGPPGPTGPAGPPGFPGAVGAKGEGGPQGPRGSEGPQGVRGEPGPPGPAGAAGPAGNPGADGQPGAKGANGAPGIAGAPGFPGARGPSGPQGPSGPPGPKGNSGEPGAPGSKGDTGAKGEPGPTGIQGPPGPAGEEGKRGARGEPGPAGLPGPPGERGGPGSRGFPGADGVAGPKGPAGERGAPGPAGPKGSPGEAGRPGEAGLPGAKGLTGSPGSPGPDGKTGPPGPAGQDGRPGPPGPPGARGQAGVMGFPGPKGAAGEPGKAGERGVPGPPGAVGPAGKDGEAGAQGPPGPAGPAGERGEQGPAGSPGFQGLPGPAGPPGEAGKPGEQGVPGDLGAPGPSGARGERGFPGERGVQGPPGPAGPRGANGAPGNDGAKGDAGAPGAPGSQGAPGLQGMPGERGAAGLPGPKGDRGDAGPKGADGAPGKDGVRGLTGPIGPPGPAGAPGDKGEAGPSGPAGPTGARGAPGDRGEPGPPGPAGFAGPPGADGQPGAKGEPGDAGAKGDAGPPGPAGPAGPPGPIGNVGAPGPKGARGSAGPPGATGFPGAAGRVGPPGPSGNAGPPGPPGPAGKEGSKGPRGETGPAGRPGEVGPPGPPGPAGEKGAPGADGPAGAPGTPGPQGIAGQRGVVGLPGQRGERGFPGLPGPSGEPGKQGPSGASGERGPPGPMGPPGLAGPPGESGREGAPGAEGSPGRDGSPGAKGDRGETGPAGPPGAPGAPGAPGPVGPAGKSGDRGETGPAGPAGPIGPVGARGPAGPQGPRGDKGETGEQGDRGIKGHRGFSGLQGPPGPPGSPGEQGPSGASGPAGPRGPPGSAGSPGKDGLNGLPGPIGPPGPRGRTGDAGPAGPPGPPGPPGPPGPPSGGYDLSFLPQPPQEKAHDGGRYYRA
T1 sequence (P02465 80-1117 limits assumed, chain 2 of 2): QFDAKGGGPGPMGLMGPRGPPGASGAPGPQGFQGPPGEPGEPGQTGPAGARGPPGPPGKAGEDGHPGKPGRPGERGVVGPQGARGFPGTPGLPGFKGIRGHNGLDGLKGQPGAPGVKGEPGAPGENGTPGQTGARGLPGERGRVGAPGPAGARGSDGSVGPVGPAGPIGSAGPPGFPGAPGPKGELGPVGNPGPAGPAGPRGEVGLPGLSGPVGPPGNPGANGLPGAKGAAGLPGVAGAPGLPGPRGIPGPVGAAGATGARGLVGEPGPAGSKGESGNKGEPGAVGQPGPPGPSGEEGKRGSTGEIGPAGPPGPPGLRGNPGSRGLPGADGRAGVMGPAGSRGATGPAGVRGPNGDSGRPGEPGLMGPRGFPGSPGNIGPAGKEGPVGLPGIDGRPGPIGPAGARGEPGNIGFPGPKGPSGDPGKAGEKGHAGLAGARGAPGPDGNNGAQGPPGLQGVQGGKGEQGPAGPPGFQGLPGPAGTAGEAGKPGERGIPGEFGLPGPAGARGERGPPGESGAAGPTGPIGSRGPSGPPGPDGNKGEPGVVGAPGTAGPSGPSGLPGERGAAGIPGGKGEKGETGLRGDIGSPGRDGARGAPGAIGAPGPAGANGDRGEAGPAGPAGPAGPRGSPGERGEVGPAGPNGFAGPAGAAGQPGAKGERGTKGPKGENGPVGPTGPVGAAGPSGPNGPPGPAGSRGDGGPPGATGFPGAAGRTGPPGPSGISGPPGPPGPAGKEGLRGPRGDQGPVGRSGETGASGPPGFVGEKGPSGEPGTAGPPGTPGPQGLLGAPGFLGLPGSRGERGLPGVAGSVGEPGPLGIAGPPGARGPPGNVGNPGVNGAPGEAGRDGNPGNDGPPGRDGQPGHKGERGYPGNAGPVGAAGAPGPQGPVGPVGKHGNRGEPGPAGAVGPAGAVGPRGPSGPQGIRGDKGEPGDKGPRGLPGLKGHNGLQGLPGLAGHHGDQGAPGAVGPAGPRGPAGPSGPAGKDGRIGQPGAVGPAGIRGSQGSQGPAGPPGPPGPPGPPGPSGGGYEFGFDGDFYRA

B1: recombinant fusion protein SFS-E (mature protein SFS of Streptococcus equi subsp. equi Bd 3221 with E-tag) (other)
chain: GAALVFGGLLGSLGGSSHQARPKEQPVSSIGDDDKSHKSSSDQPTNHQHQATSPSQPTAKSSGHHGNQPQSLSVNSQGNSSGQASEPQAIPNQHHQPQGKPQHLDLGKDNSSPQPQPKPQGNSPKLPEKGLNGENQKEPEQGERGLPGLNGENQKEPEQGERGEAGPPSTPNLEGNNRKNPLKGLDGENKPKEDLDGYNHGRRDGYRVGYEDGYGGKKHKGDYPKRFDESSPKEYNDYSQGYNDNYGNGNPD
notes: PCR fragment encoding the mature SFS was cloned into pG8SAET and purified from the periplasm on an anti-E tag column; both are treated as one molecule; also called recombinant protein SFS; not shown: 13 amino acid peptide tag (E-tag) encoded by vector pG8SAET
B1: no binding.
